Some results are limits rather than exact numbers.

The target in experiment [1] is T1, purified αvβ3 receptors from human placenta (human), P06756.
T1 chain 1: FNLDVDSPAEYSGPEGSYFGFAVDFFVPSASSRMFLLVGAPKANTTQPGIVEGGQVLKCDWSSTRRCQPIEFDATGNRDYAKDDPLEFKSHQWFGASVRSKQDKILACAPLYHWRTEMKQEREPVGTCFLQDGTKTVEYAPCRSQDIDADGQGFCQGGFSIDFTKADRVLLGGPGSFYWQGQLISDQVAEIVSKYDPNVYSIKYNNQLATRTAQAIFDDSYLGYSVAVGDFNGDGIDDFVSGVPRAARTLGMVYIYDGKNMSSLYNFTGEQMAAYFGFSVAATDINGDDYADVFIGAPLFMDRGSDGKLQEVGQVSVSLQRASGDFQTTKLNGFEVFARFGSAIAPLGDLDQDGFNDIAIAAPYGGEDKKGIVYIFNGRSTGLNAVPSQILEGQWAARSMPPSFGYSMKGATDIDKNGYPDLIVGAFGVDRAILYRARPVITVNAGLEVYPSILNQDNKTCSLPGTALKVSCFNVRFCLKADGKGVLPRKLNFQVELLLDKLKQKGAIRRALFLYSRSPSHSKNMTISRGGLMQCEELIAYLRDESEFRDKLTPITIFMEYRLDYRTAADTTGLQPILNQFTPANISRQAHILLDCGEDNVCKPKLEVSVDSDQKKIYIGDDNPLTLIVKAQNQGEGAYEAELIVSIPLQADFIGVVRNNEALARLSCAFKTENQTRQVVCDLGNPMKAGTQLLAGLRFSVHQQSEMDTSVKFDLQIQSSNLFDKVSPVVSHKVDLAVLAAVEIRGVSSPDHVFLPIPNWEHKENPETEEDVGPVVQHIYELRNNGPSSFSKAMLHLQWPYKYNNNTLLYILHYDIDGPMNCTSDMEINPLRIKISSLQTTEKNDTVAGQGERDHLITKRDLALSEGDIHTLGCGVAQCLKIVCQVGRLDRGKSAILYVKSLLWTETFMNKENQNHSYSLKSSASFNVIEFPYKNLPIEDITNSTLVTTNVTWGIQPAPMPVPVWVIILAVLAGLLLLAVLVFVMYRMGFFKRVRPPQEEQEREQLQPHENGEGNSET
T1 chain 2: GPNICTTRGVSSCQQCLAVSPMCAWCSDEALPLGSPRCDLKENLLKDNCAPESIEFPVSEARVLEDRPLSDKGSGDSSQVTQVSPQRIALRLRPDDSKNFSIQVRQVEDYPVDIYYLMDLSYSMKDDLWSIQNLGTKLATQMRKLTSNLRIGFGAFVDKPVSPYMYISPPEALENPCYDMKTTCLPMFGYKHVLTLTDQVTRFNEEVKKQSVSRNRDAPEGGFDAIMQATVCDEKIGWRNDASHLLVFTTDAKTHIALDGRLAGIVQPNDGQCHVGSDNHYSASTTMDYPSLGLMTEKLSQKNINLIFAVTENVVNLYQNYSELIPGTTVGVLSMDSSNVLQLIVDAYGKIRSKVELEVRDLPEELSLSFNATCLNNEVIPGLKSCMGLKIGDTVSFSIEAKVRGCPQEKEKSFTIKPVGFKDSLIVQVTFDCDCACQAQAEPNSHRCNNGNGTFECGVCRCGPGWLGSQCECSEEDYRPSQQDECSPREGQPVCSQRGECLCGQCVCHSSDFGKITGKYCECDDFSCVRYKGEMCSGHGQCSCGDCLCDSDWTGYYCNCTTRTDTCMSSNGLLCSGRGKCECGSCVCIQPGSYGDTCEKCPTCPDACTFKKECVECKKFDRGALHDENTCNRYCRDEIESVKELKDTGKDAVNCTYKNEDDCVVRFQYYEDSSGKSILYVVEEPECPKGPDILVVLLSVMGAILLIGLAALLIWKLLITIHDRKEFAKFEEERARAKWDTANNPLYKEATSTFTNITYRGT
The experiment is described as follows: ELISA on purified integrin; 2 mM RGDS against WOW-1 Fab. A general note: An ELISA detects its analyte on a solid surface through an enzyme-linked reagent.

The target in experiment [2] is T2, human αvβ3 integrin on cells (human), P06756.
T2 chain 1: T1 chain 1
T2 chain 2: T1 chain 2
Kind of experiment: flow cytometry, AP5-treated αvβ3-CHO cells; 2 mM RGDS against aPB. For orientation: Flow cytometry measures light scatter and fluorescence of single cells or particles in a stream.

The target of experiment [3] is T2, human αvβ3 integrin on cells (human), …. The experiment is described as follows: flow cytometry, AP5-treated αvβ3-CHO cells; 2 mM RGDS against WOW-1 Fab.

For RGDS (modifications not checked), the percent inhibition of WOW-1 Fab binding in experiment [1] was above 95%; in experiment [3] it was above 85%. In addition, the percent inhibition of aPB binding in experiment [2] is above 85%.

For the origin of these results see patent US20040005550A1, “Methods and compositions useful for targeting activated vitronectin receptor alphavbeta3” (The Scripps Research Institute, priority 1998, published 2004).
